Laboratory results reported in the RNAGym collection of RNA variant scans (doi:10.1073/pnas.2313332121).

B1: TPR t1 (parent)
chain: GACCAAUCUGCCCUCAGAGCUCGAGAACAUCUUCGGAUGCAGAGGAGGCAGGCUUCGGUGGCGCGAUAGCGCCAACGUCCUCAACCUCCAAUGCAUCCCACCACAUGAUGAUGCCUGAAGAGCCUUGGUUUUUUG

Variants of: B1
Assay: polymerase ribozyme fitness, log enrichment relative to wild type (log ratio); higher = more active; in vitro selection for triplet polymerase activity
Method in brief: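 Mutant libraries for each subunit of a heterodimeric triplet polymerase ribozyme were made by PCR and then transcribed. Each library underwent one round of in vitro selection in triplicate: annealing with a biotinylated primer, the partner subunit and triplets, frozen incubation at −7 °C, gel excision of extended constructs, streptavidin-bead capture and RT-PCR. Input and output libraries were Illumina-sequenced, and only genotypes with ≥10 input reads and ≥1 read per output were kept. Fitness is the logarithm, base 2, of genotype enrichment over wild-type enrichment, computed from inverse-variance-weighted replicate averages.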

| Variant | polymerase ribozyme fitness (log ratio) |
| --- | --- |
| GUCCAAUUUGCCCUCAGAGCUCGAGAACAUCUUCGGAUGCAGAGAAGGCAGGCUUCGGUGGCGCGAUAGCGCCAACGUCCUCAACCUCCAAUGCGUCCCACCACAUGAUGAUGCCUGAAAAGCCUUGGUUUUUUG [A2U C8U G45A A95G G120A] | -0.217 |
| GUCGAAUCUGCCCUCAGAGCUGGAGAACAUCCUCGGAUGCAGAGGAGGCAGGCUUCGGUGGCGCGAUAGAGCCAACGUCCUCAACCUCCAAUGCAUCCCACCACAUGAUGUUGCCUGAAGAGCCUUGCUUUUUUG [A2U C4G C22G U32C C70A A111U G128C] | -4.89 |
| GUCCAAUCUGUCCUCAGAGCUCGAGAACAUCUUCGGAUGCAGAGGAGGCAGGCUUCGGUGGCGCGAUAACGCCAACGUCCUCAACCUCCAAUGCAUCCCACCACAUGAUGAUGCCUGAAGAGCCUUGGUUUUUUG [A2U C11U G69A] | -4.07 |
| GUCUAAUCUGCCCUCAGAGCUCGAGAACAUCUUCGGAUGCAGAGGAGGCAGGCUUCGGUGUCGCGAUAGCGCCAACGUCCUCAACCUCCAAUGCAUCCCAACACAUGAUGAUGCCUGAAGAGCCUUCGUUUUUUG [A2U C4U G61U C101A G127C] | -3.03 |
| GUCCAAUAUGCCCUCAGAGCUCGAGAACAUCUUCGGAUGCAGAGGAGGCAGGCUUCGGUGGCGCGAUAGCGCCAACGUCCUCAACCUCCAAUGCAUCCCUCCACAUGAUGAUGCCUGAAGAGCCUUGGUUUUUUG [A2U C8A A100U] | -1.86 |
| GUCCAAUCUGUCCUCAGAGCUCGAGAACAUCUUCGGAUGCAGAGGAGGCAGGCUUCGGUGGCGCGAUAGCGCCAACGUACUCAACCUCCAAUGCAUCCCACCACAUGAUGAUGCCUGAAGAGACUUGGUUUUUUG [A2U C11U C79A C123A] | -0.946 |
| GUCCAAUGUGCCCUCAGAGCUCGAGAACAUCUUCGGAUCCAGAGGAGGCAGGCUUCGGUGCCGCGAUAGCGCCAACGUUCUCAACCUCCAAUGCAUCCCAACACAUGAUGAUGCCUGAAGAGCCUUGGUUUUUUG [A2U C8G G39C G61C C79U C101A] | -4.35 |
| GUCCAAUGUGCCCUCAGAGCUCGAGAACAUCUUCGUAUGCAGAGAAGGCAGGCUUCGGUGGCGCGAUAGCGCCAACGUCCUCAACCUCCAAUGCAUCCCACUACAUGAUGAUGCCUGAAAAGCCUUCGUUUUUUG [A2U C8G G36U G45A C102U G120A G127C] | -4.41 |
| GUCCAAUCUGCACUCAGAACUCGAGAACAGCUUCGGAUGCAGAGGAGGCAGGCUUAGGUGGCGCGAUAGCGCCAACGUCCUCAACCUCCAAUGCAUCCCACCACAUGAUGAAGGCUGAAGAGCCUUGGUUUUUUG [A2U C12A G19A U30G C56A U112A C114G] | -7.24 |
| GUGCAAUCUGCCCUCAGAGCUCGAGAACAUCUUCGGAUGCAGAGGAGGCAGGCUUCGGUGGCGCGAUAGCGCCAACGUACUCAACCUCCAAUGCAUCCCACCACAUGAUGAUACCUGAAGAGCGUUGGUUUUUUG [A2U C3G C79A G113A C124G] | -4.18 |
| GUCCAAUCUGUCCUCAGAGCUCGAGAACAUCUUCGGAUGCAGAGGAGGCAGGCUUCGGUGGCGCGAUAGCGCCAACGUCCUCAACCUCCAAUGCAUGCCACCACAUGAUCAUGUCUGAACAGCCUUGGUUUUUUG [A2U C11U C97G G110C C114U G120C] | -6.26 |
| GUCCAAUUUGGCCUCAGAGCUCGAGAACAUCUUCGGAUGCAGAGGAGGCAGGCUUCGGUGGCGCGAUAGCGCCAACGUCCUCAACCUCCAAUGCAUCCCACCACAUGAUGAUGCCUGAAGAGCCUUGGUUUUUUG [A2U C8U C11G] | -0.458 |
| GUCUAAUCUGCCCUCAGAGCUCGAGAACAUCUUCGGAUCCAGAUGAGGCAGGCUUCGGUGACGCGAUAGCGCCAACGUCCUCGACCUCUAAUGCAUCCCACCACAUGAUGAUGCCUGAAGUGCCUUGGUUUUUUG [A2U C4U G39C G44U G61A A83G C89U A121U] | -2.89 |
| GUCCAAUAUGCCCUCAGAGCUCGAGAACAUCUUCGGAUGCAGAGGAGGCAGGCUUCGGUGGCGCGAUAGCGCCUACGUCCUCAACCUCCAAUGCUUCCCACCACAUGAUAAUGCCUGAAGAGCCUUUGUCUUUUG [A2U C8A A74U A95U G110A G127U U130C] | -3.91 |
| GUCCAAUCUGUCCUCAGAGCUCGAGAACAUCUUCGGAUGCAGAGGAGGCAGGCUUCGGUGGCGCGAUAGCGCCAACGUCCUCAACCUCCAAUGCAUCCCACCACAUGAUGAUGCCUGAAGAGCCUUGGUUUUUUG [A2U C11U] | -2.95 |
| GUCAAAUCUGCCUUCAGAGCUCGAGAACAUCUUCGGAUGCAGAGGAGGCAGGCUUCGGUGGCGCGAUAGCGCCAACGUCCUCAACCUCCAAUGCAUCCCACCACAUGAUGAUGCCUGAAGAGACUUGGUUUUUUG [A2U C4A C13U C123A] | 1.02 |
| GUCCAAUCUGCGCUCAGAGCUCGAGAACAUCUUCGGAUGCAGAGGAGGCAGGCUUCGGUGGCGCGAUAGCGCCAACGUCCUCAACCUCCAAUGCUUCCCACCACAUGAUGAUGCCUGAAGAGCCUUGGUUUUUUG [A2U C12G A95U] | -2.91 |
| GUCCAAUCUGGCCUCAGAGCUCGAGAACAUCUUCGGAUGCAGAGGAGCCAGGCUUCGGUGGCGCGAUAGCGCCAACGUCCUCAACCUCCAAUGCAUCCCACCACAUGAUGAUGCCUGAAUAGCCUUGCUUUUUUG [A2U C11G G48C G120U G128C] | -0.718 |
| GUCCAAUCUGUCCUCAGAGCUCGAGAACAUCUUCGGAUGCAGAGGAGGCAGGCUUCGGUGGCUCGAUAGCGCCAACGUCCUCAACCUCCAAUGCAUCCCAGCACAUGAUGAUUCUUGAAGAGCCUUGGUUUUUUG [A2U C11U G63U C101G G113U C115U] | -6.67 |
| GUGCAAUCUGCCCUCAGAGCUCGAGAACAUCUUCGGAUGCAGAGGAGGCAGGCUUCGAUGGCGCGAUAGCGCCAACGUCCUCAACCUCCAAUGCAUCCCACCACAUGAUGAUGCCUGAAGAGCCUUGGUUUUUUG [A2U C3G G58A] | -2.99 |
| GUCCAAUGUGCCCUUAGAGCUCGAGAACAUCUUCGGAUGCAGAGGAGGCAGGCUUCGGUGGCGUGAUAGCGCCAACGUCCUCAACCUCCAAUGCAUCCCACCACAUGAUGAUGCCUGAAGAGCCUUGGUUUUUUG [A2U C8G C15U C64U] | -2.18 |
